Literature values as cited in US20180161372A1, “COMPOSITION FOR TREATING BRAIN LESIONS” (ORGANES TISSUS REGENERATION REPARATION REMPLACEMENT - OTR3, priority 2015, published 2018).

Tested on: patients
Settings: strictly selected stroke patients

rt-PA: t-PA (tissue plasminogen activator), thrombolysis approved for ischemic stroke
patients developing a cerebral hemorrhage following administration: 13%
